These results are taken from the supplement of paper PMC10567573.

± gives the standard deviation.

The series is described as follows: protein stability index of a GFP-peptide fusion (GPS, HEK-293T) (PSI 1-6); higher = more stable.
Where [1] appears, read: treatment: DMSO, c terminus: a fixed tail appended.
Setting [2] is: treatment: MLN4924 1 uM, 8 h, c terminus: a fixed tail appended.
Setting [3] is: treatment: DMSO, c terminus: native.
Where [4] appears, read: treatment: MLN4924 1 uM, 8 h, c terminus: native.
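Note: 24-mer peptide tiles fused after GFP, lentivirally expressed, FACS-sorted into six equal bins by GFP/DsRed ratio, decoded by Illumina sequencing, PSI is the read-weighted mean bin number.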

In turn, TKFDRDGNRILDEKEQEKMRQDLE [PKD2L1] yielded a protein stability index under setting [1] of 5.12 ± 0.34 and a protein stability index under setting [2] of 5.36 ± 0.35.

As for ILLQDHIRDLDVVVVSVAGAFRKG [ATL3], the protein stability index came to 2.94 ± 0.34 under setting [1] and 2.57 ± 0.68 under setting [2].

In the case of FNPEVAKYLKVPQDPLKFYKKIYF [IQUB], the protein stability index reads like this: under setting [1], 2.12 ± 0.36; under setting [2], 2.24 ± 0.043.

In the case of MAAGTSSYWEDLRKQARQLENELD [GOSR1], the protein stability index was found to be 4.11 ± 0.15 under setting [1] and 3.99 ± 0.25 under setting [2].

As to FLQKSSVGITVLNLCALSVDRYRA [EDNRA], the protein stability index is, setting by setting: under setting [1], 2.69 ± 0.54; under setting [2], 2.75 ± 0.54.

In the case of IPSEEWPNPPTLQEAGLSHTEVLF [FAF2], the protein stability index under setting [1] was found to be 3.8 ± 0.23 and the protein stability index under setting [2] was 3.81 ± 0.21.

Turning to KQNKQVLGYCLLLMLAGMGLHYIA [DNAJC4], the protein stability index amounted to 2.23 ± 0.31 under setting [1] and 2.46 ± 0.37 under setting [2].

As for NGSDNLPSSAGSGDKPLSDPAPF [TPD52L2], the protein stability index is, setting by setting: under setting [3], 5.44 ± 0.21; under setting [4], 5.51 ± 0.18.

On to SSALACTLPTLPAKVYVGVKQEIA [NCF4], for which the protein stability index runs as follows: under setting [1], 3.2 ± 0.2; under setting [2], 3.1 ± 0.35.

GSVYFWATPRQVPSLQHLCRMSIR [WSB1]: the protein stability index is, setting by setting: under setting [1], 3.05 ± 0.2; under setting [2], 2.7 ± 0.043.

SPRDLQFSEIRETSAKVNWMPPPS [TNXB] returned a protein stability index under setting [1] of 3.73 ± 0.23 and a protein stability index under setting [2] of 3.69 ± 0.29.

LRAESDFEQLPDDVAISANIADIE [NCF4]: the protein stability index was 4.66 ± 0.28 under setting [1] and 5.21 ± 0.19 under setting [2].

Turning to QWFAMLRAEQDSEVGPQEINKEEL [GMCL1], the protein stability index is, setting by setting: under setting [1], 3.95 ± 0.43; under setting [2], 3.81 ± 0.2.

For RLSSSLQGSAVTLKTSKMALSPSA [CDC14A], the protein stability index under setting [1] was 3.5 ± 0.38 and the protein stability index under setting [2] amounted to 3.65 ± 0.32.

Turning to GRASRFLQSISWDPEDFEDAWKRP [TLE6], the protein stability index was 3.15 ± 0.21 under setting [1] and 3.13 ± 0.31 under setting [2].

Regarding KSPQFNRYFYLLENIAWVKSYNIC [PDS5B], the protein stability index is, setting by setting: under setting [1], 2.17 ± 0.19; under setting [2], 2.27 ± 0.14.

For LVPDASKQRLMENTEDWRPRPGTG [PDLIM7], the protein stability index runs as follows: under setting [1], 4.47 ± 0.2; under setting [2], 4.53 ± 0.32.

VVFLSPLTTFQDQLNRRGEFIQEI [OAS1] had a protein stability index under setting [1] of 2.47 ± 0.5 and a protein stability index under setting [2] of 2.35 ± 0.48.

Take EPTAAATARRSKRERREEDRAPAE [PWWP2B]: the protein stability index worked out at 5.7 ± 0.095 under setting [1] and 5.45 ± 0.14 under setting [2].

LSVLPQLEFKLKSNDNEERLQVVK [PDS5B]: the protein stability index worked out at 3.77 ± 0.11 under setting [1] and 3.7 ± 0.25 under setting [2].

For the sequence FGATTNYGKDIVKACSLLDVAVHM [ZBED1], the protein stability index stood at 2.17 ± 0.37 under setting [1] and 2.1 ± 0.34 under setting [2].

In the case of MGGPAISMASPMSIPTNTMHYGS [CARM1], the protein stability index by setting is: under setting [3], 2.96 ± 0.25; under setting [4], 2.95 ± 0.23.

Sequence FLSGMEAAPRTLAAHPPLPLLPPA [TBX6] yielded a protein stability index under setting [1] of 2.95 ± 0.41 and a protein stability index under setting [2] of 3.15 ± 0.26.

EQHISKCKKAFREGSRKSSRVKGS [KMT2E]: the protein stability index was 4.59 ± 0.26 under setting [1] and 4.63 ± 0.25 under setting [2].

Turning to TVDSMIPAYATTRIRSQIGNTESE [GDAP1], the protein stability index is, setting by setting: under setting [1], 4.86 ± 0.16; under setting [2], 4.99 ± 0.076.

Consider REVRQFQFTAWPDHGVPEHPTPFL [PTPRD], for which the protein stability index came to 2.76 ± 0.24 under setting [1] and 2.97 ± 0.38 under setting [2].

With QLGTAGQGFSYSKSNGRGGSQAGG [MYOZ1], the protein stability index under setting [1] turned out to be 4.54 ± 0.2 and the protein stability index under setting [2] turned out to be 4.93 ± 0.71.

For LNDIFHLLKSHTNVLSVNLPDNFT [TPH1], the protein stability index reads like this: under setting [1], 2.35 ± 0.32; under setting [2], 2.05 ± 0.41.

Sequence RSVEEAPVYSVPQLLSAMGSLCSL [SCNN1D] had a protein stability index under setting [1] of 2.44 ± 0.16 and a protein stability index under setting [2] of 2.59 ± 0.4.

On to AWKELDRNYLNYGEEGAPGKWQQQ [CHGB], for which the protein stability index is, setting by setting: under setting [1], 3.47 ± 0.43; under setting [2], 3.75 ± 0.67.

For DISIHHFTCDEENVFAAVGRGLYV [WDR41], the protein stability index reads like this: under setting [1], 2.7 ± 0.35; under setting [2], 2.61 ± 0.43.

With PRRLGRLKYQAPDIDVQLSSELTD [NOP53], the protein stability index was 4.11 ± 0.48 under setting [1] and 4.14 ± 0.34 under setting [2].

Turning to VKKDHVALQVPRGKEDSTLQLLRE [CBY2], the protein stability index was found to be 4.26 ± 0.069 under setting [1] and 4.37 ± 0.07 under setting [2].

Take LVQLRNMVQQIQENSVEFEACLVA [TRIM9]: the protein stability index reads like this: under setting [1], 2.25 ± 0.1; under setting [2], 2.54 ± 0.37.

Turning to KSSSLLTQTSEECNGILTEKMEEE [ZNF396], the protein stability index is, setting by setting: under setting [1], 5.56 ± 0.15; under setting [2], 5.54 ± 0.27.

As to DDKLFQKLAKVYSYAHGWMFQGWN [CPN1], the protein stability index is, setting by setting: under setting [1], 2.45 ± 0.51; under setting [2], 2.25 ± 0.45.

Take GHVEVARLLLDSGAQVNMPADSFE [ANKRD17]: the protein stability index reads like this: under setting [1], 3.88 ± 0.091; under setting [2], 3.83 ± 0.24.

Regarding YMMAKKHLEINPDHPIVETLRQKA [HSP90AB1], the protein stability index reads like this: under setting [1], 3.01 ± 0.33; under setting [2], 3.19 ± 0.39.

With IRSMDPSALASDRFNLILADTNSD [DCAF4], the protein stability index is, setting by setting: under setting [1], 4 ± 0.14; under setting [2], 3.85 ± 0.11.

As for PPGYSAWIKEEAAERYLYFPNWAM [SLC6A17], the protein stability index reads like this: under setting [1], 2.33 ± 0.28; under setting [2], 2.11 ± 0.4.
